Reference: publication PMC10213515

These substances were tested against FtsZ (UniProt P0A9A6) (assay: PL recruitment assay (SUV co-sedimentation by low-speed centrifugation, SDS-PAGE)). Conditions: FtsZ 3 μM, GTP 2 mM, FtsA wild type or mutant 2.5 μM, SUVs 250 μg ml-1, ATP 4 mM; parent: 93.7.
Sequence of UniProt P0A9A6 (P0A9A6 whole entry): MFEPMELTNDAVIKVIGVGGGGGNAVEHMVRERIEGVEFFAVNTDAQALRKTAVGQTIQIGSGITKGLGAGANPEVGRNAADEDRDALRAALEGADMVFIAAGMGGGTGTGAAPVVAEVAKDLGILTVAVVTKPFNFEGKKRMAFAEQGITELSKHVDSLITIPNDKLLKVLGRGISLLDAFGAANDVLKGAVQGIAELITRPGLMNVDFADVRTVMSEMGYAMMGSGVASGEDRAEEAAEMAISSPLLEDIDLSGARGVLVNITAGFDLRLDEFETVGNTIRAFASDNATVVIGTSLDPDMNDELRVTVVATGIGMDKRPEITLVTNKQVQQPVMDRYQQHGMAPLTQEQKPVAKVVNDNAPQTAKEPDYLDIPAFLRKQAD

response | Substance
95.3 % of total | FtsA wild type (from UniProt P0ABH0) A188V
83.8 % of total | FtsA wild type (from UniProt P0ABH0) E14R
97.2 % of total | FtsA wild type (from UniProt P0ABH0) S84L
41.1 % of total | FtsA wild type (from UniProt P0ABH0) Y375A
